Measured values as given in patent US20160279215A1, “NOVEL PEPTIDES AND COMBINATION OF PEPTIDES FOR USE IN IMMUNOTHERAPY AGAINST VARIOUS TUMORS” (immatics biotechnologies GmbH, priority 2015, published 2016).

target: T1, HLA-A*02:01 (Homo sapiens, UniProt P04439, D140Y/D185E/D98H/E176V/E277Q/G131W/G231S/I119V/I121R/I166T/I218V/L300P/L318F/N151K/N90K/P208A/P217A/Q86G/Q94H/R138H/R169H/T345S); test: MHC binding assay: UV-ligand exchange with β2m ELISA (peptide exchange yield); conditions: binding to HLA-A*02:01 evaluated by peptide exchange yield (UV-ligand exchange, β2m ELISA)
T1 construct: made in house
Source text: Candidate peptides for T cell based therapies according to the present invention were further tested for their MHC binding capacity (affinity). The individual peptide-MHC complexes were produced by UV-ligand exchange, where a UV-sensitive peptide is cleaved upon UV-irradiation, and exchanged with the peptide of interest as analyzed. Only peptide candidates that can effectively bind and stabilize the peptide-receptive MHC molecules prevent dissociation of the MHC complexes. To determine the yield of the exchange reaction, an ELISA was performed based on the detection of the light chain (β2m) of stabilized MHC complexes. The assay was performed as generally described in Rodenko et al. (Rodenko et al., 2006).
96 well MAXISorp plates (NUNC) were coated over night with 2 ug/ml streptavidin in PBS at room temperature, washed 4× and blocked for 1 h at 37° C. in 2% BSA containing blocking buffer. Refolded HLA-A*02:01/MLA-001 monomers served as standards, covering the range of 15-500 ng/ml. Peptide-MHC monomers of the UV-exchange reaction were diluted 100 fold in blocking buffer. Samples were incubated for 1 h at 37° C., washed four times, incubated with 2 ug/ml HRP conjugated anti-β2m for 1 h at 37° C., washed again and detected with TMB solution that is stopped with […]. Absorption was measured at 450 nm. Candidate peptides that show a high exchange yield (preferably higher than 50%, most preferred higher than 75%) are generally preferred for a generation and production of antibodies or fragments thereof, and/or T cell receptors or fragments thereof, as they show sufficient avidity to the MHC molecules and prevent dissociation of the MHC complexes.

Row | Peptide exchange | Substance
1 | ++++ (≧75% = ++++) | 1 (KLQEKIQEL; listed as Homo sapiens) [compound 1]
2 | +++ (≧50 = +++) | 3 (RVIDDSLVVGV; listed as Homo sapiens) [compound 3]
3 | +++ (≧50 = +++) | 5 (GLVDIMVHL; listed as Homo sapiens) [compound 5]
4 | ++++ (≧75% = ++++) | 6 (FLNAIETAL; listed as Homo sapiens) [compound 6]
5 | +++ (≧50 = +++) | 10 (QLIEKNWLL; listed as Homo sapiens) [compound 10]
6 | +++ (≧50 = +++) | 12 (RLLDPKTIFL; listed as Homo sapiens) [compound 12]
7 | +++ (≧50 = +++) | 13 (RLHDENILL; listed as Homo sapiens) [compound 13]
8 | +++ (≧50 = +++) | 16 (SLADLSLLL; listed as Homo sapiens) [compound 16]
9 | ++ (≧20% = ++) | 18 (KTASINQNV; listed as Homo sapiens) [compound 18]
10 | ++ (≧20% = ++) | 19 (KVFELDLVTL; listed as Homo sapiens) [compound 19]
11 | ++ (≧20% = ++) | 20 (ALVEKGEFAL; listed as Homo sapiens) [compound 20]
12 | +++ (≧50 = +++) | 21 (YLMDDFSSL; listed as Homo sapiens) [compound 21]
13 | +++ (≧50 = +++) | 22 (LMYPYIYHV; listed as Homo sapiens) [compound 22]
14 | +++ (≧50 = +++) | 23 (ALLSPLSLA; listed as Homo sapiens) [compound 23]
15 | +++ (≧50 = +++) | 24 (KVWSDVTPL; listed as Homo sapiens) [compound 24]
16 | +++ (≧50 = +++) | 25 (LLWGHPRVALA; listed as Homo sapiens) [compound 25]
17 | +++ (≧50 = +++) | 26 (VLDGKVAVV; listed as Homo sapiens) [compound 26]
18 | ++ (≧20% = ++) | 28 (IKVTDPQLLEL; listed as Homo sapiens) [compound 28]
19 | +++ (≧50 = +++) | 30 (IITEVITRL; listed as Homo sapiens) [compound 30]
20 | +++ (≧50 = +++) | 31 (GLLETTGLLAT; listed as Homo sapiens) [compound 31]
21 | ++ (≧20% = ++) | 33 (TLDRNSLYV; listed as Homo sapiens) [compound 33]

Row | Peptide exchange | Substance
22 | +++ (≧50 = +++) | 34 (TLNTLDINL; listed as Homo sapiens) [compound 34]
23 | +++ (≧50 = +++) | 36 (TVLQELINV; listed as Homo sapiens) [compound 36]
24 | ++ (≧20% = ++) | 37 (QIVELIEKI; listed as Homo sapiens) [compound 37]
25 | ++ (≧20% = ++) | 38 (VLQQESNFL; listed as Homo sapiens) [compound 38]
26 | +++ (≧50 = +++) | 39 (YLEDGFAYV; listed as Homo sapiens) [compound 39]
27 | +++ (≧50 = +++) | 40 (KIWEELSVLEV; listed as Homo sapiens) [compound 40]
28 | +++ (≧50 = +++) | 41 (IVTEIISEI; listed as Homo sapiens) [compound 41]
29 | ++ (≧20% = ++) | 42 (KQMSISTGL; listed as Homo sapiens) [compound 42]
30 | +++ (≧50 = +++) | 44 (AVFNLVHVV; listed as Homo sapiens) [compound 44]
31 | +++ (≧50 = +++) | 45 (FLPVSVVYV; listed as Homo sapiens) [compound 45]
32 | +++ (≧50 = +++) | 47 (GLNGFNVLL; listed as Homo sapiens) [compound 47]
33 | ++ (≧20% = ++) | 49 (KLIGNIHGNEV; listed as Homo sapiens) [compound 49]
34 | ++ (≧20% = ++) | 51 (LDSEALLTL; listed as Homo sapiens) [compound 51]
35 | ++ (≧20% = ++) | 52 (TIGIPFPNV; listed as Homo sapiens) [compound 52]
36 | + (≧10% = +) | 53 (AQHLSTLLL; listed as Homo sapiens) [compound 53]
37 | +++ (≧50 = +++) | 54 (YLVPGLVAA; listed as Homo sapiens) [compound 54]
38 | +++ (≧50 = +++) | 55 (HLFDKIIKI; listed as Homo sapiens) [compound 55]
39 | ++ (≧20% = ++) | 57 (TLYPGRFDYV; listed as Homo sapiens) [compound 57]
40 | +++ (≧50 = +++) | 58 (HLLGEGAFAQV; listed as Homo sapiens) [compound 58]
41 | +++ (≧50 = +++) | 59 (ALADGIKSFLL; listed as Homo sapiens) [compound 59]
42 | +++ (≧50 = +++) | 60 (YLFSQGLQGL; listed as Homo sapiens) [compound 60]

Row | Peptide exchange | Substance
43 | +++ (≧50 = +++) | 61 (ALYPKEITL; listed as Homo sapiens) [compound 61]
44 | +++ (≧50 = +++) | 62 (SLVENIHVL; listed as Homo sapiens) [compound 62]
45 | +++ (≧50 = +++) | 63 (KLLPMVIQL; listed as Homo sapiens) [compound 63]
46 | ++ (≧20% = ++) | 64 (SLYAGSNNQV; listed as Homo sapiens) [compound 64]
47 | ++ (≧20% = ++) | 65 (SLSEKSPEV; listed as Homo sapiens) [compound 65]
48 | +++ (≧50 = +++) | 67 (FLIENLLAA; listed as Homo sapiens) [compound 67]
49 | +++ (≧50 = +++) | 68 (QLMNLIRSV; listed as Homo sapiens) [compound 68]
50 | ++ (≧20% = ++) | 69 (LKVLKADVVL; listed as Homo sapiens) [compound 69]
51 | ++ (≧20% = ++) | 70 (GLTEKTVLV; listed as Homo sapiens) [compound 70]
52 | ++ (≧20% = ++) | 71 (HMSGKLTNV; listed as Homo sapiens) [compound 71]
53 | ++ (≧20% = ++) | 72 (VLSTRVTNV; listed as Homo sapiens) [compound 72]
54 | ++ (≧20% = ++) | 74 (GLAFLPASV; listed as Homo sapiens) [compound 74]
55 | +++ (≧50 = +++) | 75 (ALLDGALQL; listed as Homo sapiens) [compound 75]
56 | +++ (≧50 = +++) | 76 (FTAEFLEKV; listed as Homo sapiens) [compound 76]
57 | ++ (≧20% = ++) | 79 (TVLEEIGNRV; listed as Homo sapiens) [compound 79]
58 | +++ (≧50 = +++) | 80 (VLTGQVHEL; listed as Homo sapiens) [compound 80]
59 | ++ (≧20% = ++) | 81 (ILAEEPIYI; listed as Homo sapiens) [compound 81]
60 | +++ (≧50 = +++) | 82 (ILAEEPIYIRV; listed as Homo sapiens) [compound 82]
61 | ++ (≧20% = ++) | 83 (GLLENSPHL; listed as Homo sapiens) [compound 83]
